Results taken from patent US11591580B2, “K85 mutation-containing plant EPSPS mutant, and encoding gene and application thereof” (GEVOTO LLC, priority 2017, dated 2023).
Numbering of substitutions follows the chain as printed.

B1: Z1: maize EPSPS mutant I, SEQ ID NO: 12, containing only a single mutation K94(85)I (protein)
chain: MAVQAGAEEIVLQPIKEISGTVKLPGSKSLSNRILLLAALSEGTTVVDNLLNSEDVHYMLGALRTLGLSVEADKAAKRAVVVGCGGKFPVEDSIEEVQLFLGNAGTAMRPLTAAVTAAGGNATYVLDGVPRMRERPIGDLVVGLKQLGADVDCFLGTDCPPVRVNGIGGLPGGKVKLSGSISSQYLSALLMAAPLALGDVEIEIIDKLISIPYVEMTLRLMERFGVKAEHSDSWDRFYIKGGQKYKSPKNAYVEGDASSASYFLAGAAITGGTVTVEGCGTTSLQGDVKFAEVLEMMGAKVTWTETSVTVTGPPREPFGRKHLKAIDVNMNKMPDVAMTLAVVALFADGPTAIRDVASWRVKETERMVAIRTELTKLGASVEEGPDYCIITPPEKLNVTAIDTYDDHRMAMAFSLAACAEVPVTIRDPGCTRKTFPDYFDVLSTFVKN
modifications: Zea mays EPSPS mutant with mutation K94(85)I
B2: Z0: wild-type maize EPSPS represented by SEQ ID NO: 10; control group of Example 6 (protein)
chain: B1 chain with I94K
modifications: Zea mays
B3: G3: soybean EPSPS mutant, SEQ ID NO: 24, two mutations K98(85)T and P114(101)S (protein)
chain: MAAAEKPSTAPEIVLEPIKDISGTITLPGSKSLSNRILLLAALSEGTTVVDNLLYSEDIHYMLGALRTLGLRVEDDQTTKQAIVEGCGGLFPTIKESTDEINLFLGNAGTAMRSLTAAVVAAGGNASYVLDGVPRMRERPIGDLVAGLKQLGADVDCFLGTNCPPVRVNGKGGLPGGKVKLSGSVSSQYLTALLMAAPLALGDVEIEIVDKLISVPYVEMTLKLMERFGVSVEHSGDWDKFLVHGGQKYKSPGNAFVEGDASSASYFLAGAAVTGGTITVNGCGTSSLQGDVKFAEVLEKMGAKVTWSENSVTVTGPPQDSSGQKVLQGIDVNMNKMPDVAMTLAVVALFANGQTTIRDVASWRVKETERMIAICTELRKLGATVEEGPDYCVITPPEKLNVTAIDTYDDHRMAMAFSLAACGDVPVTIKDPGCTRKTFPDYFEVLERFTRH
modifications: Glycine max EPSPS mutant with mutations K98(85)T and P114(101)S

What was measured:
[1] = tested on: double knockout E. coli; assay: growth of E. coli transformed by genes encoding maize EPSPS (wild type and mutants) in culture media containing different glyphosate concentrations (Example 6, FIG. 2); assay type: cell-based
From the text: E. coli transformed by the gene (SEQ ID NO: 9, which encoded the wild-type maize EPSPS represented by SEQ ID NO: 10) encoding the wild-type maize EPSPS was taken as a control group.
E. coli transformed by the gene (SEQ ID NO: 11, which encoded SEQ ID NO: 12) encoding the maize EPSPS mutant I that contained only a single mutation K94(85)I, was taken as Experiment Group 1.
E. coli transformed by the gene (with a nucleotide sequence represented by SEQ ID NO: 13, and the amino acid sequence of the encoded three-mutation maize EPSPS mutant is represented by SEQ ID NO: 14) encoding the maize EPSPS mutant that contained only three mutations G105(96)A, P110(101)S and K207(194)R but no mutation K94(85)I, was taken as Experiment Group 2.
E. coli transformed by the gene (SEQ ID NO: 15) encoding the maize EPSPS mutant (containing four mutations: K94(85)I, G105(96)A, P110(101)S and K207(194)R) provided in Example 3 was taken as Experiment Group 3.
The glyphosate resistance of the gene encoding the maize EPSPS mutant and the maize EPSPS mutant encoded thereby in the E. coli was verified by detecting the growth situation of the transformed E. coli in culture media containing different glyphosate concentrations (0, 1, 20, 50 mM). In the above, the E. coli used is double knockout E. coli.
Results are as shown in FIG. 2 (wherein Z0 represents a control group, Z1 represents Experiment Group 1, Z2 represents Experiment Group 2, and Z3 represents Experiment Group 3).

[2] = tested on: transgenic rice seedlings; assay: glyphosate resistance of the EPSPS mutant in transgenic rice plants sprayed with glyphosate (Example 8, Table 1); assay type: in vivo, rice (Nipponbare); conditions: for survival of transformed rice seedlings (in words): 2× and 5× glyphosate dosages; for glyphosate resistance of transformed rice seedlings (in words): glyphosate sprayed at the 1× dosage
From the text: A method for detecting the glyphosate resistance of the G1 soybean EPSPS mutant (SEQ ID NO: 20), G2 soybean EPSPS mutant (SEQ ID NO: 22) and G3 soybean EPSPS mutant (SEQ ID NO: 24) provided in Example 7, the R1 rice EPSPS mutant (SEQ ID NO: 4) provided in Example 5, and the Z1 maize EPSPS mutant (SEQ ID NO: 12) provided in Example 6 in the transgenic rice is as follows:
The plasmids (containing the EPSPS mutant gene) of the monoclonal resistant bacteria of pADV5-EPSPS in Examples 1-7 were extracted by a conventional method, followed by double enzyme digestion by Pac1 and BstEII, the small fragments were collected, and then the small fragments were ligated, using T4 DNA ligase, to the pGVP1 vectors that had undergone the same double enzyme digestion, to obtain a pGVP1-EPSPS vector having a structure as shown in FIG. 8.
In the present example, the glyphosate resistance of the EPSPS mutant in transgenic rice plants were verified. An experiment method is as follows:
The transgenic rice seedlings transplanted were uniformly arranged in a same experiment area (preventing leaves from overlapping). The areas occupied by the experiment groups and the control group were calculated, and according to the areas, glyphosate was sprayed at a 1× dosage of 1060 g/hectare (0.106 g/m^2). 2× dosage was 2120 g/hectare, 5× dosage was 5300 g/hectare, and 20× dosage was 21200 g/hectare.
Commercially available Roundup® 41% ammonium glyphosate was used. Roundup® ammonium glyphosate with corresponding volumes was taken according to the above sprayed concentrations, then diluted with 20 times of volume of water, and then uniformly sprayed on the plants in the experiment groups and the control group. After leaf surfaces were dry, the plants were moved into greenhouse or outdoor to cultivate.
After the glyphosate was sprayed at the 1× dosage, growth states of the plants in each group were observed and recorded on a 10th day, and glyphosate was sprayed to the survived plants at the 2× dosage. The growth states of the plants in each group were observed and recorded 10 days later, and glyphosate was sprayed to the survived plants at the 5× dosage. The growth states of the plants in each group were observed and recorded 10 days later, and glyphosate was sprayed to the survived plants at the 20× dosage. The growth states of the plants in each group were observed and recorded 10 days later, and results are shown in Table 1, wherein corresponding numbers of plants denoted by −, +, ++ and +++ are listed, and “%++&+++” is percentage of plant having medium and high glyphosate resistance to the total number of plants observed.

[3] = tested on: double knockout E. coli; assay: growth of E. coli transformed by genes encoding soybean EPSPS (wild type and mutants) in culture media containing different glyphosate concentrations (Example 7, FIG. 3); assay type: cell-based; conditions: culture media containing 20 mM glyphosate
[4] = culture media containing 1 mM glyphosate
[5] = 1X dosage (1060 g/hectare glyphosate), recorded on 10th day
[6] = 2X dosage (2120 g/hectare) sprayed to plants surviving 1X, recorded 10 days later
[7] = 5X dosage (5300 g/hectare) sprayed to plants surviving 2X, recorded 10 days later
[8] = 20X dosage (21200 g/hectare) sprayed to plants surviving 5X, recorded 10 days later

Molecule	% ++&+++ (percentage of plant having medium and high glyphosate resistance to the total number of plants observed) [2, 5] [%]	number of plants with resistance + (low glyphosate resistance) [2, 5]	number of plants with resistance ++ (medium glyphosate resistance) [2, 5]	number of plants with resistance +++ (high glyphosate resistance) [2, 5]	number of plants with resistance − (no glyphosate resistance) [2, 5]	% ++&+++ (percentage of plant having medium and high glyphosate resistance to the total number of plants observed) [2, 6] [%]	number of plants with resistance + (low glyphosate resistance) [2, 6]	number of plants with resistance ++ (medium glyphosate resistance) [2, 6]	number of plants with resistance +++ (high glyphosate resistance) [2, 6]	number of plants with resistance − (no glyphosate resistance) [2, 6]	% ++&+++ (percentage of plant having medium and high glyphosate resistance to the total number of plants observed) [2, 7] [%]	number of plants with resistance + (low glyphosate resistance) [2, 7]	number of plants with resistance ++ (medium glyphosate resistance) [2, 7]	number of plants with resistance +++ (high glyphosate resistance) [2, 7]	number of plants with resistance − (no glyphosate resistance) [2, 7]	% ++&+++ (percentage of plant having medium and high glyphosate resistance to the total number of plants observed) [2, 8] [%]	number of plants with resistance + (low glyphosate resistance) [2, 8]	number of plants with resistance ++ (medium glyphosate resistance) [2, 8]	number of plants with resistance +++ (high glyphosate resistance) [2, 8]	number of plants with resistance − (no glyphosate resistance) [2, 8]	also measured
B1	10.5	1	2	0	16	0.0	3	0	0	16	0.0	2	0	0	17	0.0	0	0	0	19	growth of transformed E. coli ([1]; culture media containing 0 mM glyphosate and 1 mM glyphosate): obviously superior to that of control group (Z0); growth of transformed E. coli [1, 4]: obviously superior to that of the control group (Z0); survival of transformed rice seedlings (in words) [2]: some of the rice seedlings transformed by the maize EPSPS mutant Z1 survived; glyphosate resistance of transformed rice seedlings (in words) [2]: obviously superior to that of Z0
B2	0.0	4	0	0	16	0.0	0	0	0	20	0.0	0	0	0	20	0.0	0	0	0	20	growth of transformed E. coli [1, 4]: weak; survival of transformed rice seedlings (in words) [2]: no rice transformed by the wild-type maize EPSPS Z0 survived; glyphosate resistance of transformed rice seedlings (in words) [2]: no plant having medium or high glyphosate resistance
B3	45.2	1	9	5	16	19.4	5	6	0	20	0.0	10	0	0	21	0.0	3	0	0	28	growth of transformed E. coli [3]: superior to that of Experiment Group 2 (G2); glyphosate resistance of transformed rice seedlings (in words) [2]: certain resistance to glyphosate
